{
  "source": "patent US20190194664",
  "system": "eGFP-Polη",
  "data": [
    {"substance": "Rad18 mutant lacking the residues phosphorylated by the Cdc7 kinase (Rad18Δ401-445)", "values": [
      {"measurement": "suppression of UV-dependent Chk1 phosphorylation", "result": "this mutant did not either suppress Chk1 phosphorylation"}
    ]}
  ]
}
